Data from the DeepSol protein solubility set.

Assay: soluble on expression in E. coli; label from the status in PepcDB or PDB records

Question: With “VGAPLAVELDRSSPVPLYFQLAQTIENAIIGGELAPGDRFENELALAKRLNLSRPTTRRAIQELVDKGLLVRKRGVGTQVVQSAVHRPVELTSLFDDLARAGQSPTTKLLDYQVSVPAEDVAAELNLQPGAEVASIRRLRSTNGEPLALMTNHIPVDLAPDPEELEAHGLYHALRARGVHIRLARQRIGAKAASKAEASLLDEKTGAPLLTMNRTAFDDSGSAVEFGSHCYRASRYYFDTTVVDR” as the sequence, how does the “soluble on expression in E. coli” value read?
Answer: not soluble

Question: With “SDEFDALRIKWATLLTGGPALDPADSDIAARTDKLAQDANDYWEDMDLSSSRTYIWYALRGNGTSDNVNAVYERLRTMALAATTVGSSLYGNADLKEDILDALDWLYVNSYNSTRSRSAYNWWHWQLGIPMSLNDIAVLLYDDISAARMATYMDTIDYFTPSIGLTGANRAWQAIVVGVRAVIVKDAVKLAAARNGLSGTGIFPYATGGDGFYADGSFVQHTTFAYTGGYGSSVLETTANLMYLLSGSTWSVSDPNQSNVWQWIYEAYRPLLYKGAMMDMVRGREISRSYAQDHAVGHGIVASIVRLAQFAPAPHAAAFKQIAKRVIQEDTFSSFYGDVSTDTIRLAKAIVDDPSIAPAAAPNLYKQYAAMDRAVLQRPGFALGLALYSTRISSYESINSENGRGWYTGAGATYLYNQDLAQYSEDYWPTVDAYRIPGTTVASGTPIASGTGTSSWTGGVSLAGQYGASGMDLSYGAYNLSARKSWFMFDDEIVALGSGISSTAGIPIETVVDNRKLNGAGDNAWTANGAALSTGLGVAQTLTGVNWVHLAGNTADGSDIGYYFPGGATLQTKREARTGTWKQINNRPATPSTAVTRNYETMWIDHGTNPSGASYGYVLLPNKTSAQVGAYAADPAIEIVVNTSGVQSVKEKTLGLVGANFWTDTTQTADLITSNKKASVMTREIADERLEASVSDPTQANNGTIAIELARSAEGYSADPGITVTQLAPTIKFTVNVNGAKGKSFHASFQLG” as the sequence, how does the “soluble on expression in E. coli” value read?
Answer: soluble

Question: Which “soluble on expression in E. coli” value does the source give for “MSLNIKDEHIDSVCSLLDQLVGNVSFKNLFTGYGLFHKEETMFAIWQNKKLYLRGEGVLAIQLTKLGCEPFTTNELNKRFVLSQYYALSDQILRSNRLCRKLIILSIKQILEQKLECTLRKLNRLKDLPNLTIKHERALIKVGITNVAMLREIGAENALVELKKSGSGATLDFYWKLVCALQNKNSQMLSQAEKERLLKKLNEVWRKNGLKGYRKLDDEEGHHHHHH” here?
Answer: soluble

Question: Which “soluble on expression in E. coli” value does the source give for “MADAEGDPLQAFWTQVVRLRDLLKFDFYFADSAAFHQNVAEEMSWHADWEQQVRAGRDGIETLMRAKRPLLADAMLRPYFEAYTIVADVLRDAPAEIAEKDLTKLALGVGQQYVAQGRVRNNESVSALLFATARQVAADQGLLEHGPDLMEQRRAFRDELRGILRDLDTVDRYARELFAARERERRTKRDEAVLEHHHHHH” here?
Answer: not soluble

Question: Which “soluble on expression in E. coli” value does the source give for “MNIQWFPGHMAKTRRILAENLKMVDVVVELLDARIPASSKNPEIDGIVKNKPKIVVLNKADLADEKISNEWSKWYNSQGYATIFIDSIKGTGIKQLKDQMRDIMKDRIERDRQRGRIFRPIRTMIVGIPNVGKSSLINKIAGKKSAVTGDRPGVTRNKQWINVNNEIQLMDTPGILWPKFEDKTVGINLAVTGAIKDEIIDTVELASILLEHLSKTYPENIKKRYKLESLQDKKGYELLEEAGKKRGCIISGGEVDLTRIAAIVLDEFRGGKIGRITLERPGDAVQELVAD” here?
Answer: not soluble

Question: With “MAHHHHHHMNDDNTLALLYEGINLIFDKWTILRLAVTNNWGGINSEDKKKKLIEYVHNFVTNNNAKNKLCDYLRDEMSVLFNVDIEDHSDIEIADLILDLYQNLKKKNYDILEKIKNIQIYDISCSQEKNLIQNYEQGDEENMEDEYSSSNYSEYSNEESLDKE” as the sequence, how does the “soluble on expression in E. coli” value read?
Answer: soluble

Question: With “MSFRHFKRRLDTSSADESSSADEEHPDQNVSLTEKSASLSHSDLGGEILNGTGKNRTPNDGQESNESDGSPESDESPESEESSDNSDSSDSDDMRPLPRPLFMKKKANNLQKATKIDQPWNAQDDARVLQTKKENMIKNIDKANQVAKNYETMKLRLNTNYSTNEELIKQCLLLDDNDEVDSEKERQKWFERQNERKQKHRRIQLAKQRESEEYEAKRFEAMQKGKDGNTKYDVILDKEKEKLDHKKQRSAEKVEKSHNNNRYKITRTKNVEFGDLGKNSRDYEETEYSVI” as the sequence, how does the “soluble on expression in E. coli” value read?
Answer: soluble

Question: For “METKYRKPFVYEFITEKEVMNAANDLVKKGIEQKDIYVLTHEKERTDRIADNADVNTIGIKEEGLGTSIINVFQKTGDQLRNKMQELGLNEEEANFYEEKLDEGKILLFVKDLERVGEWLHERRCMYSI”, which “soluble on expression in E. coli” value is on record?
Answer: not soluble

Question: For “MQPLPDPKPNTQKEHHPVDRNFIAMIDDLKTTQIPWQKPGHIMTEDEQKMWNATRMREYRRKSNETLEKSKSMLDGLKSQCTVNTVVLKNMLITKSVEDSVKLNAARFLGKSEKELMDIPEIKQMFQQYWNCRKTASNSHYEQRSLIYLDRVVSLQTEYLNYKANRNDSRSPSQLVKKIKDATMKAEAYEFFMDDKRVRKVIGELNEIDSKFKENIGAWLLQQLKIDSSLSHLLST”, which “soluble on expression in E. coli” value is on record?
Answer: not soluble

Question: For “MGHHHHHHGGHMSLITVMNRIGVKPEFAAQFEESFRNRAGLVDGMPGFIRNEVLKPTKPGDPYIVLTYWQDEPSFRAWTESDEFKQGHARSGSLPHDAFTGRPVLEVHDVLLSSDNEGGS”, which “soluble on expression in E. coli” value is on record?
Answer: soluble

Question: For “MAEWNRAKRKRKTIEIQYTGLASNSTLKVTKVTGKHLESMGIPGKFGYEVYPEEAVYLMETGSATISTSSGRDLSLLEAFSILEAMSVPMSKYEAYKHVKRTGLVVLRPRKPTIDFERLRHVEPKIRQKFAEKSFEMLVNRHTVPEERVPNPDSFPSFENRNGQISMKMKVLHTSPALVNFLPLEMLESIQTSTILQNLKPPTPNRPPCRPPSYWPFVDHHVTNWQEFRFQAEQARQETVLRRLKKLRPPSHAELRRERITVENVDFHVFSPASFSHRLPARPLFSLICYSATGPPLKISELAELENVVFAMEEAGKVNFVAMSGASIDLNNYLC”, which “soluble on expression in E. coli” value is on record?
Answer: not soluble

Question: For “LLDVMMDIFRRRELDLPCDGGAPQAPRPLKDHPRTPTDRGDADPRDAASHGLGTDRFPDLPTPEQDPRHPYRPGSQTLRPLRPLRPLRPLRPHGR”, which “soluble on expression in E. coli” value is on record?
Answer: not soluble

Question: Which “soluble on expression in E. coli” value does the source give for “MAHHHHHHMLRIYDPKETVAFYEKNFGMINIHTYHFDEYNFSLYFLITPPYDEEERKKIPPPNTIESEQYLWNLKTVCLELTHNHNSTEKLSNGNNDNDRGFGHIAFNCQDVTQFCDYLFKEKKVNFHKLPHETKMKSIGFALDPNDYWIEIVKRSSEVKWKDKEGIANFSQTMIRVKNPEKSLYFYLHILGMKLVHIKHASDFSLYFLKSPYVEGNKGGDISTKEKPEGEQNLPPYNFEELKKAYQSDEDYENLKTSWEPVLELTHNHGTENDDQFAYHNGNTEPRGFGHIGFLVDDLANYCQELEKLGIPFKKKIHEGQMNNIAFVYDPDNYLVELIQRGTTFGRN” here?
Answer: not soluble

Question: Which “soluble on expression in E. coli” value does the source give for “MGSDKIHHHHHHMKKKLALVVVHEIYGVNDHMHHVTDHFTSSHIDVFCPNLLQSQPAFHYSDEEKAYHFFMNHIGFEDGKKQIETFITHLSSRYTHIGLIGFSVGATISWLCSNNPKIDFIIGCYGSRIRDYIHMKPTCATLLIFPEKEASFSVPSFIQSLQQQKNPLLEIYQLHGEHGFLNPYTEKYNGHSTNQAYNLIDSFLVKNTLIKEM” here?
Answer: not soluble

Question: With “MFKKEKGGWFYMAGLKVEWNDWCPGCGNFGILSAEQQAIQELGLDPKKVVLVSGIGCSGKIPHFIRLPASGVHTLHGRALTFAIGIKLANPSLEVIVNGGDGDQLGIGVGHFVSAGRRNVDLTVIVHNNGVYGLTKGQASPTLKLGVKTKSLPKPNINSDINPIALAISSGYTFVARGYAYDVKHLKEIIKKAIKHKGLAMIDVLQPCPTYNDIHTKEYYDKRVYKLDEDPSWDPIVKKPEEMDDKMSKAILKSMEWGDRIPIGIFYQNELVSTYEQRIAERSPSYLDNPPAHDVIEFEGKPTTDVEDILKERRVT” as the sequence, how does the “soluble on expression in E. coli” value read?
Answer: not soluble

Question: With “MSLGEETSYCFKEKSRGVLREWYAHNPYPSPREKRELAEATGMTTTQVSNWFKNRRQRDRAAEAKERENTENEGHHHHHH” as the sequence, how does the “soluble on expression in E. coli” value read?
Answer: soluble

Question: With “MPIKVKYYGNVVFASDAVCGQAENYATLKAMKEVGNYTISIQTFENAENVYPEEFLAKPVADEHYLTTEDGSVGIKGHYLDIVKELIEKDKVDIIFAGGKLGSLAKLAELTRPYGIPTLEHHHHHH” as the sequence, how does the “soluble on expression in E. coli” value read?
Answer: not soluble

Question: With “MRPNLRFYVQTINDIVKTTEDIGEVMNPYYEEVRQAIDKNKVNDLTAERIAEIQAKFKEGTEKYELMLKKVGTLKPTPQVLGIHKKFQHAYTEYVAGCNEMILATDPETGIDADLFNASEEKQDQATDELTFAITRMSNILLKK” as the sequence, how does the “soluble on expression in E. coli” value read?
Answer: not soluble
